Among the data in publication PMC5818064 are fold change of mean GFP fluorescence against the dominant-negative mutant values, retold here.

In this experiment the target is RBD–GFP11 (Rho-binding domain of Rhotekin fused to GFP β-strand 11) (UniProt Q8C6B2). The experiment can be described thus: split reporter (BiFC, NanoBiT); tripartite split-GFP; HEK_GFP1-9 cells stably expressing GFP1-9, transiently co-transfected with GFP10 and GFP11 fusions (1:1); fixed, double immunostaining with anti-GFP10 and anti-GFP11; flow cytometry, mean GFP fluorescence in the GFP10+ GFP11+ gate. On the technique in general: Flow cytometry measures light scatter and fluorescence of single cells or particles in a stream.
Sequence of UniProt Q8C6B2 (Q8C6B2 whole entry, the tested form may be a part): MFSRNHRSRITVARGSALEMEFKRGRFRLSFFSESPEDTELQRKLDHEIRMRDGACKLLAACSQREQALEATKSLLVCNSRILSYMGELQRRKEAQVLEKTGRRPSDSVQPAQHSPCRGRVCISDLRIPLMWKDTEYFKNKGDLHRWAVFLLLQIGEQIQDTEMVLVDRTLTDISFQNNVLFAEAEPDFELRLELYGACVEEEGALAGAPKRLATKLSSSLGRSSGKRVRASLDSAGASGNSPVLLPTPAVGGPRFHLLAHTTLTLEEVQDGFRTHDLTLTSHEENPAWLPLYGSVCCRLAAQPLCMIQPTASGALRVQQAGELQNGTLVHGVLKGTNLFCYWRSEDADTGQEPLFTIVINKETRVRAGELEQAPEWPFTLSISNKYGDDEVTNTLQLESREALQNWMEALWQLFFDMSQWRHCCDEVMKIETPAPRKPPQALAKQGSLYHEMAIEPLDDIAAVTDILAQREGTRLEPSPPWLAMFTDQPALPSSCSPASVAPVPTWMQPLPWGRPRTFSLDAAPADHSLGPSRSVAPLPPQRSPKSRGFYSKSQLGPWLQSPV

“GFP10–RhoB L63 (constitutively active RhoB mutant fused to GFP β-strand 10) (from UniProt P62745 1-196) (natural protein)” returned a fold change of mean GFP fluorescence against the dominant-negative mutant of 5 fold. The figure for “GFP10–RhoA L63 (constitutively active RhoA mutant fused to GFP β-strand 10) (from UniProt P61586 1-193) (natural protein)” is 5 fold.
